From patent US9248217B2, “Nanoparticle coating of surfaces” (Nanocopocia, LLC, priority 2006, dated 2016) come the findings set out here.

Series [1] in a line: HPLC retention time of eluted peptide before and after ElectroNanospray (structural integrity). The class given is physicochemical. As to conditions: sprayed in aqueous solution onto stents and stainless steel plates. The procedure: General HPLC methods to quantify dexamethasone (DXM) and three peptides (luteinizing hormone releasing hormone (human; LHRH), angiotensin I, and insulin chain B) were developed using an HP 1090 system equipped with a narrowbore column (Zorbax SB C-18, 2.1 mm i.d.×150 mm, 3.5 μm) and UV detector. Data integration and processing were performed with Agilent ChemStation software (Rev. A.08.03). Peak areas were obtained by subtracting the baseline (from a “blank” injection of the sample matrix) from the experimental chromatogram. DXM was analyzed with the following method: 20/80 to 100/0 to 20/80 acetonitrile/water in 3 min and 3.01 min at 0.6 mL/min, end run at 6 min; 65° C.; 10 μL injection volume. DXM, which was detected at 243 nm, eluted at 2.27 min. The calibration curve for DXM (obtained from Alexis Biochemicals) generated with seven standard concentrations ranging from 0.5 to 30 μg/ml in acetonitrile was adequately linear (R^2=0.9999) and the limit of quantification (LOQ) was 0.5 μg/ml. The peptides (all obtained from Sigma-Aldrich) were analyzed with the following method: 20/80 to 50/50 to 20/80 acetonitrile/water buffered with 0.1% (v/v) perchloric acid in 5 min and 5.01 min at 0.4 mL/min, end run at 9 min; 65° C.; 10 μL injection volume; 210 nm detection wavelength. The retention of the peptides was measured before and after the ElectroNanospray process described earlier. LHRH eluted at 2.61 min, angiotensin I eluted at 3.54 min, and insulin B chain eluted at 4.71 min. Calibration curves for the peptides were obtained using five standard concentrations ranging from 1.25 to 50 μg/ml in a solution of 10 mM perchloric acid in water. The LOD for LHRH, angiotensin I and insulin chain B were 0.19, 0.25 and 0.34 μg/ml, respectively. System suitability and injection reproducibility tests were satisfactory.
We identified and sourced three readily available peptides of varying chain length, LHRH, angiotensin I, and insulin B chain. These were sprayed in aqueous solution onto both stents and stainless steel plates. […]

Series [2] can be described thus: SEM imaging of drug particles on hydrogel. The class given is physicochemical. The conditions noted are these: SEM at 20,000x magnification. The procedure:
For initial feasibility spray examples, griseofulvin (0.09023 g), a poorly water soluble antifungal agent, was dissolved in a mixture of ethanol (9 ml) and acetone (6 ml). A hydrogel sample, approximately 5 mm in largest diameter, removed from a borate buffer solution and placed on a metallic spray platform beneath the ElectroNanospray device's dual capillary spray head. The solution was sprayed in the cone jet mode at 4.17 kV at 5 μl/min and a distance of 15.6 mm from the hydrogel. Spray time was 20 minutes. The surface pattern seen in the SEM image shown in FIGS. 39A and 39B show a uniform, closely packed surface of approximately 200 nm particles at 20,000× magnification.

Turning to “angiotensin I (DRVYIHPFHL; Angiotensin-1; UniProt P01019 25-34, looked up) [model peptide obtained from Sigma-Aldrich]”, the “HPLC retention time after spraying compared to before spraying” value in series [1] is recorded as “unchanged”.
As to `COC1=CC(=O)C[C@@H](C)[C@]12Oc1c(Cl)c(OC)cc(OC)c1C2=O` [griseofulvin], in series [2], the “particle size on hydrogel surface” value is “approximately 200 nm”.
Consider “Luteinizing hormone releasing hormone [LHRH]”, for which the “HPLC retention time after spraying compared to before spraying” value in series [1] was “unchanged”.
In the case of insulin B chain, in series [1], the “HPLC retention time after spraying compared to before spraying” value was “unchanged”.
